Data from the supplement of paper PMC12667976.

B1: library; numbered along this chain (parent)
chain: MATDAALRRLLRLHRTEIAVAVDSAFPLLHALADHDVVPEDKFQETLHLKEKEGCPQAFHALLSWLLTQDSTAILDFWRVLFKDYNLERYGRLQPILDSFPKDVDLSQPRKGRKPPAVPKALVPPPRLPTKRKASEEARAAAPAALTPRGTASPGSQLKAKPPKKPESSAEQQRLPLGNGIQTMSASVQRAVAMSSGDVPGARGAVEGILIQQVFESGGSKKCIQVGGEFYTPSKFEDSGSGKNKARSSSGPKPLVRAKGAQGAAPGGGEARLGQQGSVPAPLALPSDPQLHQKNEDECAVCRDGGELICCDGCPRAFHLACLSPPLREIPSGTWRCSSCLQATVQEVQPRAEEPRPQEPPVETPLPPGLRSAGEEVRGPPGEPLAGMDTTLVYKHLPAPPSAAPLPGLDSSALHPLLCVGPEGQQNLAPGARCGVCGDGTDVLRCTHCAAAFHWRCHFPAGTSRPGTGLRCRSCSGDVTPAPVEGVLAPSPARLAPGPAKDDTASHEPALHRDDLESLLSEHTFDGILQWAIQSMARPAAPFPS

Variants of: B1
Assay: AIRE transcriptional activation functional score (insulin promoter-GFP; nonsense median 0, synonymous median 1) (normalised score); higher = higher AIRE activity (more reporter activation)
Conditions: with insulin promoter-GFP reporter in HEK293
Method: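 Deep mutational scan of full-length human AIRE (codon-optimized cDNA, DT-POPCode NNN libraries over three regions) integrated at a Bxb1 landing pad in HEK293 cells carrying an insulin core promoter-GFP reporter at a Flp-In site. Cells were sorted for the top 10% GFP about 14 days after transfection. Variant frequency log-ratios (select vs non-select, TileSeq) were rescaled so that the nonsense median is 0 and the synonymous median is 1, then averaged over biological replicates.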

AIRE transcriptional activation functional score of substitutions, site by site:
G204: A 1.42; C 0.575; D 0.621; E 0.847; F -0.0648; H 1.43; I 0.113; K 0.976; L 0.339; N 0.413; P 1.08; Q 0.897; R 1.32; S 0.807; T 1; V 0.123; W 0.133; Y 0.0127
A205: C 1; D 0.746; E 0.647; F 0.213; G 0.764; H 1.58; I -0.0126; K 1.17; L 0.428; M -0.0564; N 0.648; P 0.728; Q 0.529; R 0.318; S 1.09; T 1.19; V 0.34; W -0.461; Y 0.153
V206: A 0.817; C 0.542; D 0.39; E 0.273; F 0.751; G 0.631; H 0.927; I 1.26; K 0.691; L 1.1; M 0.51; N 0.529; P 0.762; Q 0.0809; R 0.478; S 0.691; T 0.68; W 0.352; Y 0.936
E207: A -0.0187; C 0.532; D 0.788; F 0.67; G 1.11; H 0.756; I 0.19; K 0.169; L 0.143; M -0.394; N 0.371; P 0.476; Q 0.672; R 0.167; S 0.372; T 0.3; V -0.0618; W -0.268; Y 0.0192
G208: A 0.173; C 0.43; D 0.296; E 0.502; F -0.178; H -0.0252; I -0.141; K 0.899; L 0.332; M 0.171; N 0.00613; P 0.201; Q 1.23; R 0.0966; S 0.651; T 0.433; V 0.173; W 0.199; Y -0.0457
I209: A 0.165; C -0.0153; D 0.64; E 0.5; F 0.905; G 0.579; K 0.159; L 0.758; M 0.79; N 0.657; P 0.35; R 0.917; S 0.203; T 0.1; V 0.66; W 0.784; Y 0.98
L210: A 0.581; C 0.0167; E -0.0363; F 1.01; G 0.615; H 0.71; I 0.93; M 0.6; P 0.65; Q 0.0497; R 0.504; S 0.327; V 0.768; W 0.57; Y 0.854
I211: A -0.0822; C 0.481; D 0.837; E -0.399; F 0.181; G 0.694; K 0.0368; L 0.428; M 0.504; P -0.156; R 0.0828; S 0.773; V 1.15; W 0.83; Y 1.04
Q212: A -0.0175; C 1.01; D -0.139; E 0.507; F 0.392; G 0.371; H 1.68; I -0.568; K 1.04; L -0.00712; P 0.358; R 1.09; S 1.14; T 0.447; V -0.424; W -0.0246
Q213: A 0.437; C 0.354; E 0.718; F -0.348; G 0.977; H 1.15; I -0.822; K 1.02; L 0.173; M -0.306; N 0.805; P 0.531; R 0.637; S 0.639; T 0.965; V -0.393; W -1.06; Y 1.23
V214: A 0.717; C 1.01; E 0.383; F 1.01; G 0.556; H 0.137; I 0.735; L 0.413; M 0.284; P 0.238; R 0.66; S 0.447; W 0.402; Y 1.25
F215: A 0.568; C 0.382; D 0.909; E 0.601; G 0.391; H 0.814; I 0.64; K -0.187; L 0.751; M 0.136; P 0.715; R 0.351; S 0.474; T -0.146; V 0.289; W 0.878; Y 0.54
E216: A 0.655; C 0.558; D 0.741; G 1.09; H 0.489; I -1.75; K 1.2; L 1.42; N 1.75; Q 0.964; R -0.537; S 1.33; V 0.252; W 0.395
S217: A 0.4; C 1.16; D 1.57; E 0.8; F 0.411; G 1.1; H 1.07; I 0.549; K 0.417; L 0.613; M 0.709; N 0.895; P 0.572; Q 0.502; R 0.942; T 0.908; V 0.98; W 0.119; Y 0.669
G218: A 1.02; C 0.887; D 0.885; E -0.051; F 0.259; H 1.03; I 1.14; K 0.888; L 1.01; M 1.01; N 0.111; P 0.651; Q -0.344; R 1.13; S 0.817; T 1.11; V 1.1; W -0.332; Y 0.677
G219: A 1.13; C 1.5; D 0.836; E 0.654; F 0.625; H 0.761; I 1.35; L 1.14; M 0.958; N 0.637; P 0.556; Q 0.0466; R 0.858; S 0.761; T 1.01; V 1.14; W 0.981; Y 1.14
S220: A 0.262; C 1.21; D 0.488; E 1.14; F 0.305; G 0.764; I 0.449; L 1.04; M 1.16; P -0.127; Q -1.55; R 1.06; T 0.905; V 0.743; W -1.37; Y -0.203
K221: A -0.576; C 0.921; D 0.706; E 1.1; F -0.0481; G 0.945; H 0.705; I -0.82; L 0.328; M 1.02; N 0.995; P 0.766; Q 0.621; R 0.95; S 0.464; V 0.663; W 0.337; Y 0.0318
K222: A 0.955; C -0.312; D 0.771; E 0.916; F -0.315; G 0.393; H 0.644; I 0.0162; L 0.0335; M -0.00949; N 0.679; P 0.845; Q 1.11; R 1.05; S 0.847; T 0.149; V 0.137; W -0.0951; Y -1.15
C223: A 0.737; D 0.503; E 0.793; F 0.324; G 0.803
